{
  "source": "paper PMC9540186",
  "about": "(The Plant Journal, 2022)",
  "molecular_target": "the molecule itself",
  "test": "SDS-PAGE of non-boiled extracts with Western blot",
  "data": [
    {"protein": "GFP‐NtUVR8 fusion protein (full‐length Nicotiana tabacum UVR8) (receptor, UniProt A0A1S4AB85 1-441, looked up) MAADGSSERAVSRKVLLISAGASHSVALLSANVVCSWGRGEDGQLGLGDAEDRFSPTQVSALDEQQIVSVTCGADHATAYSEALKQVYSWGWGDFGRLGHGNSSDLFTPQPIKALHGICIKQIACGDSHCLAVTMEGEVQSWGRNQNGQLGLGTTEDSLVPQKIEAFKGIPVKMVAAGAEHTAAVTEDGELYGWGWGRYGNLGLGDRNDRLVPVKVSATVGEKMFMVACGWRHTICVSSSGSLYTYGWSKYGQLGHGDFEDHLFPHKVQALHDSFTSQISGGWRHTMALTADGELYGWGWNKFGQVGVGDNVDHCSPVQVKFPHDQKVILISCGWRHTLAVTERQNVFSWGRGTNGQLGHGESVDRNVPRIIEALSVDGSSGQQIGSSTSDPSAAEKSWVSPTERYAVVPNENVPKQTVTSVKGNGNDVNVPENDVKRIRL", "values": [
      {"measurement": "stoichiometry N", "value": 2}
    ]}
  ]
}
